Laboratory results from US10246721B2, “Sugar transporters” (CARNEGIE INSTITUTION OF WASHINGTON, priority 2009, dated 2019).
Entries after “also recorded” stand apart in the source; their conditions may differ.

T1: SWEET1 (Arabidopsis thaliana, UniProt Q8L9J7)
T1 sequence (Q8L9J7 1-247): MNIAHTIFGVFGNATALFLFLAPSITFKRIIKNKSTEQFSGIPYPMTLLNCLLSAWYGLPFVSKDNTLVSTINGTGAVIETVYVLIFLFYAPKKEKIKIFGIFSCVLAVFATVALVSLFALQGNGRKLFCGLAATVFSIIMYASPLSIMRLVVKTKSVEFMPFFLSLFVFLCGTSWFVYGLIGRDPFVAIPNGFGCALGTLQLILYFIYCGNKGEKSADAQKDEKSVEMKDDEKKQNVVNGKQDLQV

T2: SGLT1 (Homo sapiens, UniProt P13866)
T2 construct: The ORF of SGLT1 (Invitrogen, Carlsbad, Calif.) was amplified by PCR and cloned into pCR2.1-TOPO; host or cells: Xenopus laevis oocytes injected with cRNA from pOO2
T2 sequence (P13866 1-664): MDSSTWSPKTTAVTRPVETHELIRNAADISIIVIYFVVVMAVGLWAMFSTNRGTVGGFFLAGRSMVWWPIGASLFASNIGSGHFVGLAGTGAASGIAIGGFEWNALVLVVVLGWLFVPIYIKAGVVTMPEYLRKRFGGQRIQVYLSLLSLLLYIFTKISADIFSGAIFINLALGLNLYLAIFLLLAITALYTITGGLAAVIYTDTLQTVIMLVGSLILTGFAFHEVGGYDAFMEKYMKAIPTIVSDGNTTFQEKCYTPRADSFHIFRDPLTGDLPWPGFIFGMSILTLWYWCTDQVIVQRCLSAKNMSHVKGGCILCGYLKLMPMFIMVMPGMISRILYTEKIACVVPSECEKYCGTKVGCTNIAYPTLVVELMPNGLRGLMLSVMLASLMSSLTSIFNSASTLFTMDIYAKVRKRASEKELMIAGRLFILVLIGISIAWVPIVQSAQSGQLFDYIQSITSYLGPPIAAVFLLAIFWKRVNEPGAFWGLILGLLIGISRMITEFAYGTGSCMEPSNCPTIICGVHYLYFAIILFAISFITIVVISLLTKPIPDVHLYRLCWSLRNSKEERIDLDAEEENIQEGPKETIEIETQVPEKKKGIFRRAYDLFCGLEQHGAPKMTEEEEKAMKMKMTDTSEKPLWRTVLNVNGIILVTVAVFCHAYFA

B1: CeSWEET1: C. elegans SWEET homolog (protein, UniProt O45102 1-299, looked up)
Sugar transporter SWEET1: MLEVVLQVLSISAITTTIALFFCGIPICMQIRRQGAVGDISGVPFLMGVLGGSFWLRYGLLKMDYVMIIVNVVGVACMAFYCVFFLIYSLPKKTFTCQLILVTSTIGGMVLWIALKPNLDYLGVICMTFNIMNFGAPLAGLGVVLKNREVSTLPLPMCVANFLVSSQWCLYGNLVSDIYIIIPNGIGMFLAIVQLALFVVLPIRENEKSPLEKLASWFTGRDSKVKDLERGDCIVSSPPSSPQKVPNETRSDVEDKFDKLMAETSSTIPSDSRRGSMGSPPSYKSRSSSDPDLSSIQSP
B2: RAG1AP1: human homolog of the SWEET sugar transporters (SLC50) (protein)
chain: MEAGGFLDSLIYGACVVFTLGMFSAGLSDLRHMRMTRSVDNVQFLPFLTTEVNNLGWLSYGALKGDGILIVVNTVGAALQTLYILAYLHYCPRKRVVLLQTATLLGVLLLGYGYFWLLVPNPEARLQQLGLFCSVFTISMYLSPLADLAKVIQTKSTQCLSYPLTIATLLTSASWCLYGFRLRDPYIMVSNFPGIVTSFIRFWLFWKYPQEQDRNYWLLQT

How the values were obtained:
SWEET1 [1] = molecular target: T1, SWEET1; experiment: Inhibition of SWEET1-mediated glucose uptake in yeast EBY4000 by competing sugars; assay type: cell-based; set-up: SWEET1, SWEET8 and OsSWEET11 ORFs were amplified by RT-PCR using specific primers from Arabidopsis and rice, respectively; conditions: 5 mM D-glucose; competitor at 10-fold excess (50 mM)
Procedure: Competitors were added at 10-fold excess (final concentration 50 mM). Relative activity was normalized to D-glucose uptake rate [100%]. Data are mean±S.D.
Yeast uptake. Yeast cells were grown in SD medium supplemented 2% maltose and auxotrophic markers. Cells were harvested at OD600 0.5-0.7 by centrifugation, and washed twice in ice-cold distilled water. Cell pellets were weighed after the supernatant had been removed. Cells were resuspended 5-10% (w/v) in 40 mM potassium phosphate buffer, pH 6.0. Cells were pre-incubated in potassium phosphate buffer for 5 min at 30° C. For each reaction, 330 μl pre-warmed buffer containing 20 mM glucose (0.55 μCi D-[U-^14C] glucose; 590 KBq/μmol, Amersham Pharmacia Biotech Inc.) was added to an equal volume of cells. 120 μl aliquot were withdrawn and transferred to the ice-cold water. Cells were harvested by vacuum filtration onto a glassfiber filters (GF/C, Whatman), and washed twice in 10 ml ice-cold water. Filters were transferred to scintillation vials containing 5 ml of Ultima Gold XR Scintillator liquid (Perkin Elmer). Radioactivity taken up by the cells was measured by liquid scintillation spectrometry. To determine substrate specificity for SWEET1 compared to D-glucose, a ten-fold excess of competing sugar species was used. To determine the pH-dependence of SWEET1 activity, 40 mM potassium phosphate uptake buffer at specified pH was used. […]

SWEET1 [2] = molecular target: T1, SWEET1; experiment: FRET glucose sensor FLIPglu600μΔ13V co-transfected with SWEET1 in HEK293T cells, cytochalasin B; assay type: cell-based; set-up: SWEET1, SWEET8 and OsSWEET11 ORFs were amplified by RT-PCR using specific primers from Arabidopsis and rice, respectively; expressed in transfected cells; host or cells: HEK293T; conditions: 20 μM cytochalasin B
Procedure: Similar results were obtained for several Arabidopsis paralogs of this gene family.
FRET analysis. Cell culture, transfection, image acquisition and FRET analysis were performed as described previously.
To identify novel glucose transporters from the reference plant Arabidopsis, genes encoding uncharacterized polytopic membrane proteins from the plant membrane protein database Aramemnon, available on the internet at “aramemnon.botanik.uni-koeln.de”,—were screened using a mammalian expression system. Candidate genes were coexpressed with a high-sensitivity FRET glucose sensor (i.e. FLIPglu600μΔ13V) in human embryonic kidney HEK293T cells, which are characterized by low endogenous glucose uptake activity. […] To determine whether SWEET1 can also mediate efflux from the cytosol, we expressed the FRET glucose sensor FLIPglu600μΔ13V^ER in the lumen of the endoplasmic reticulum (ER; FIG. 9B). Topologically, uptake across the plasma membrane (PM) is initiated from the extracellular side of the carrier, while ‘export’ to the ER is initiated from the cytoplasmic side of the transporter (FIG. 9C). […] SWEET1 may thus function as a glucose uniporter, for which the direction of transport depends only on the glucose gradient across the membrane. […]

SGLT1 = molecular target: T2, SGLT1; experiment: Coexpression with SGLT1 in Xenopus oocytes, glucose accumulation; assay type: cell-based; conditions: coexpressed with SGLT1
Excerpt: Data are mean±SE, n=7. Inset indicates concentrative uptake of glucose by SGLT 1 and glucose efflux (‘leak’) caused by OsSWEET11.
All experiments were repeated independently at least 6 times. Error bars are means±SD.
Human SGLT1 sodium glucose cotransporter (“S”) which has been previously shown to be a secondary active glucose importer. SGLT1 is […] expressed in Xenopus oocytes and can mediate uptake of 14C labelled glucose into the oocyte. When RAG1AP1 (“R”) is coexpressed, less uptake is seen in the oocytes. This is compatible with a glucose ‘leak’ due to RAG1AP1 activity that prevents high accumulation of glucose in the SGLT1 expressing cells.
(§1) Tracer uptake in Xenopus oocytes. The assay was performed with modification as described in Detaille et al. Two days after injection, groups of 7 to 16 oocytes were transferred into tubes containing 200 μL MBS and 1 mM D-glucose (4 μCi/ml D-[^14C(U)]-glucose; 319 mCi/mmol, PerkinElmer). After incubation at 20° C. for one hour, and the cells were washed by adding 1 ml ice-cold MBS. Incubation was stopped by adding ice-cold MBS buffer. The ooctyes were washed three times in ice-cold MBS buffer. The cells were solubilized with 100 μl 1% (w/v) SDS, and measured individually.
The ORF of SGLT1 (Invitrogen, Carlsbad, Calif.) was amplified by PCR and cloned into pCR2.1-TOPO (Invitrogen). […]

Xenopus oocytes [3] = experiment: Tracer [14C]-glucose uptake in Xenopus oocytes; assay type: cell-based, Xenopus laevis; conditions: 1 mM D-glucose, 1 h
Procedure: Xenopus oocytes isolation and RNA injection. After linearization of the pOO2 plasmids with MluI, capped cRNAs were synthesized in vitro by SP6 RNA polymerase using mMESSAGE mMACHINE kit (Ambion, Inc., Austin, Tex.). Xenopus laevis oocytes were kindly provided by M. Goodman (Stanford University). Microinjection was carried out as described by Ballatori et al.. 25 ng to 50 ng of each cRNA was injected into healthy-looking oocytes (RNAse-free water was used as control). The injected oocytes were then maintained at 18° C. in modified Barth's saline (MBS: (in mM) 88 NaCl, 1 KCl, 2.4 NaHCO3, 0.82 MgSO4, 0.33 Ca(NO3)2, 0.41 CaCl2, and 20 HEPES-Tris, pH 7.5) with 100 μM gentamycin, 100 U/ml penicillin and 100 μM streptomycin solution for 2-3 d. The incubation buffer was changed once per day.
as §1, with “individually. […]” for “individually.”

[4] = 14C glucose uptake data for C. elegans homologs (FIG. 42); assay type: cell-based; conditions: 1 mM and 10 mM glucose
Excerpt: FIGS. 42A and 42B show the 14C glucose uptake data for five of the C. elegans homologs.
At least 3, 4 nd 5 are active. (code for names of C elegans genes:Ce1: C06G8.1; Ce2: K06A4.4; Ce3: Y39A1A.8; Ce4: K11D12.5; Ce5: K02D7.5; (worm mutants of Ce5: K02D7.5 show increased fat accumulation, consistent with reduced efflux of glucose from these cells).

Xenopus oocytes [5] = experiment: Tracer efflux assay in Xenopus oocytes injected with [14C]-glucose; assay type: cell-based, Xenopus laevis; conditions: S.E., n>7
Procedure: 50 nl of 10 mM radiolabeled glucose (0.18 μCi/μl) were injected and radiotracer efflux was measured over time. Data are mean±SE (n>10 cells).
Tracer efflux assay in Xenopus oocytes. Efflux was measured essentially as described. Three days after cRNA injection, oocytes were injected with 50 nl solution containing 10 mM D-glucose with 0.18 μCi/μl D-[^14C(U)]-glucose. Cells were immediately washed once in MBS. At defined time points, the reaction buffer (950 μl) was removed for scintillation counting and replaced with fresh medium. Finally, the oocytes were solubilized with 1% SDS and analyzed for radioactivity.
The ORF of SGLT1 (Invitrogen, Carlsbad, Calif.) was amplified by PCR and cloned into pCR2.1-TOPO (Invitrogen). The SGLT1 ORF was excised with EcoRI/XhoI and cloned into the corresponding sites in pOO2. The splice variant RAG1AP1-1 in pDNR-LIB (Clone ID: 4076256, Open Biosystems, Huntsville, Ala.) was restricted with EcoRI/XhoI and cloned into pOO2. RAG1AP1-2 in pCMV-SPORT6 (Clone ID: 3896154, Open Biosystems, Huntsville, Ala.) was transferred into the pOO2-GW (D. Loqué, unpublished) by in vitro LR recombination (Gateway). RAG1AP1-3aa was mutated to Y216A, L218A, L219A (putative internalization motifs) by site-directed mutagenesis and cloned by in vitro BP recombination in pDONR221-f1 and further mobilized into pOO2-GW by LR reaction. […]

Row | Molecule | effect of coexpression on SGLT1-mediated glucose accumulation in oocytes (SGLT1) | [14C]-glucose uptake into Xenopus oocytes (Xenopus oocytes [3]) | other results
1 | CO[C@@H]([C@H](O)[C@H](O)CO)[C@@H](O)C=O [3-O-methylglucose] | – | – | inhibition of SWEET1-mediated glucose uptake by competitor sugar (SWEET1 [1]): marginally inhibited
2 | C=C1[C@@H](C)[C@H]2[C@H](Cc3ccccc3)NC(=O)[C@]23OC(=O)/C=C/[C@H](O)CCC[C@@H](C)C/C=C/[C@H]3[C@@H]1O [cytochalasin B] | – | – | effect of cytochalasin B on SWEET1 (GLUE1)-mediated glucose uptake (SWEET1 [2]): insensitive; also recorded: did not affect; also recorded: insensitivity
3 | B1 | counteract secondary active glucose accumulation | mediates glucose uptake; also recorded: weak, but significant glucose uptake | 14C glucose uptake activity [4]: active
4 | B2 | less uptake; also recorded: counteract secondary active glucose accumulation; also recorded: counteracted SGLT1-mediated glucose accumulation | unable to mediate glucose accumulation | % glucose released within 2 min (Xenopus oocytes [5]): 5.27±0.29%
